These results are taken from the supplement of paper PMC7877785.

± gives the uncertainty stated by the source.

The nature of this data set: self-splicing fitness, log relative to wild type (ln ratio); higher = more splicing; Tetrahymena group I intron in knt gene, E. coli kanamycin selection, DiMSum; sequences stand for … in CUCUCU…GGAGGGAAAAGUUAUCAGGCAUGCACCUGGUAGCUAGUCUUUAAACCAAUAGAUUGCAUCGGUUUAAAAGGCAAGACCGUCAAAUUGCGGGAAAGGGGUCAACAGCCGUUCAGUACCAAGUCUCAGGGGAAACUUUGAGAUGGCCUUGCAAAGGGUAUGGUAAUAAGCUGACGGACAUGGUCCUAACCACGCAGCCAAGUCCUAAGUCAACAGAUCUUCUGUUGAUAUGGAUGCAGUUCACAGACUAAAUGUCGGUCGGGGAAGAUGUAUUCUUCUCAUAAGAUAUAGUCGGACCUCUCCUUAAUGGGAGCUAGCGGAUGAAGUGAUGCAACACUGGAGCCGCUGGGAACUAAUUUGUAUGCGAAAGUAUAUUGAUUAGUUUUGGAGUACUCGUGGUCG
In outline:
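Library with all eight P1ex-region intron nucleotides randomised, intron inside the knt kanamycin-resistance gene on pET-22b(+), in E. coli BL21(DE3). Cells grew overnight at 37°C or 30°C on LB agar with or without 25 μg/mL kanamycin (plus 100 μg/mL carbenicillin, 50 μM IPTG, 0.2% rhamnose), in six replicate transformations. Pooled colonies were amplicon-sequenced on Illumina HiSeq 2500. DiMSum fitness is the error-weighted combination of wild-type-normalised replicate fold changes, kanamycin versus none.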

As to GGAAAGCAAUAUUACGGCCU, the “self-splicing fitness (ln)” value runs as follows: (30 °C) -1.71 ± 0.15; (37 °C) -0.809 ± 0.21.
For the sequence UGCUAGCAAUAUUACGCCCA, the “self-splicing fitness (ln)” value is, setting by setting: (30 °C) 0.275 ± 0.1; (37 °C) 0.384 ± 0.13.
On the same counts, the results for UUUAAGCAAUAUUACGGGGU are -3.7 ± 0.22 and -1.7 ± 0.19.
With AAUUAGCAAUAUUACGAGCA, the “self-splicing fitness (ln)” value runs as follows: (30 °C) -1.1 ± 0.12; (37 °C) -0.758 ± 0.1.
UGGAAGCAAUAUUACGUGGG: the “self-splicing fitness (ln)” value is -2.89 ± 0.13 (30 °C) and -2.53 ± 0.18 (37 °C).
On the same counts, the results for CAAGAGCAAUAUUACGAGCA are -2.85 ± 0.28 and -2.63 ± 0.38.
Take GCCUAGCAAUAUUACGAAGG: the “self-splicing fitness (ln)” value is -3.05 ± 0.17 (30 °C) and -2.65 ± 0.3 (37 °C).
For GCUCAGCAAUAUUACGCCAG, in that order: -3.54 ± 0.26 and -1.83 ± 0.3.
For the sequence CUGAAGCAAUAUUACGUUUU, the “self-splicing fitness (ln)” value runs as follows: (30 °C) -3.46 ± 0.2; (37 °C) -3.22 ± 0.17.
CGGCAGCAAUAUUACGCGAC: the “self-splicing fitness (ln)” value runs as follows: (30 °C) -4.41 ± 0.42; (37 °C) -1.36 ± 0.18.
For AUGUAGCAAUAUUACGCACG, the “self-splicing fitness (ln)” value is, setting by setting: (30 °C) -1.02 ± 0.11; (37 °C) 0.147 ± 0.14.
On the same counts, the results for AAUUAGCAAUAUUACGACGA are -0.729 ± 0.12 and -0.15 ± 0.2.
CCACAGCAAUAUUACGGUUA: the “self-splicing fitness (ln)” value is -3.14 ± 0.15 (30 °C) and -2.7 ± 0.16 (37 °C).
On the same counts, the results for UGCGAGCAAUAUUACGUACG are -3.12 ± 0.21 and -2.49 ± 0.22.
For UGCAAGCAAUAUUACGCUAG, the “self-splicing fitness (ln)” value (30 °C) is -2.55 ± 0.27 and the “self-splicing fitness (ln)” value (37 °C) is -2.42 ± 0.33.
For CCCGAGCAAUAUUACGGCGU, in that order: -2.83 ± 0.13 and -1.71 ± 0.13.
On the same counts, the results for UCCCAGCAAUAUUACGCUAG are -3.45 ± 0.18 and -2.9 ± 0.34.
As to GACGAGCAAUAUUACGCGCU, the “self-splicing fitness (ln)” value was -3.04 ± 0.48 (30 °C) and -2.87 ± 0.31 (37 °C).
As for UUUGAGCAAUAUUACGUCAG, the “self-splicing fitness (ln)” value was -3.43 ± 0.2 (30 °C) and -1.46 ± 0.27 (37 °C).
For GAGCAGCAAUAUUACGAAUU, the “self-splicing fitness (ln)” value is, setting by setting: (30 °C) -1.95 ± 0.14; (37 °C) -1.45 ± 0.15.
Take UCUUAGCAAUAUUACGCUGG: the “self-splicing fitness (ln)” value was -2.64 ± 0.24 (30 °C) and -1.64 ± 0.23 (37 °C).
With UGUCAGCAAUAUUACGACAU, the “self-splicing fitness (ln)” value by setting is: (30 °C) -3.964 ± 0.028; (37 °C) -2.58 ± 0.04.
For the sequence UCUUAGCAAUAUUACGCUCG, the “self-splicing fitness (ln)” value was -0.481 ± 0.25 (30 °C) and -1.43 ± 0.44 (37 °C).
For CCGGAGCAAUAUUACGUUAU, in that order: -2.97 ± 0.31 and -2.01 ± 0.23.
Take UCGUAGCAAUAUUACGCCAG: under “30 °C”, the “self-splicing fitness (ln)” value was -1.49 ± 0.3.
As to GGACAGCAAUAUUACGUACU, the “self-splicing fitness (ln)” value runs as follows: (30 °C) -1.22 ± 0.097; (37 °C) -0.317 ± 0.1.
Turning to ACAAAGCAAUAUUACGGGCG, the “self-splicing fitness (ln)” value (30 °C) is -0.625 ± 0.05 and the “self-splicing fitness (ln)” value (37 °C) is 0.111 ± 0.067.
Consider GAGAAGCAAUAUUACGUCAU, for which the “self-splicing fitness (ln)” value (30 °C) is -2.57 ± 0.097 and the “self-splicing fitness (ln)” value (37 °C) is -0.577 ± 0.089.
Regarding UGACAGCAAUAUUACGCAUA, the “self-splicing fitness (ln)” value is, setting by setting: (30 °C) -0.976 ± 0.07; (37 °C) 0.0999 ± 0.082.
As for CGACAGCAAUAUUACGACUA, the “self-splicing fitness (ln)” value reads like this: (30 °C) -2.15 ± 0.13; (37 °C) 0.027 ± 0.092.
Consider GUCAAGCAAUAUUACGCCUC, for which the “self-splicing fitness (ln)” value reads like this: (30 °C) -1.25 ± 0.25; (37 °C) 0.644 ± 0.41.
On the same counts, the results for GGGAAGCAAUAUUACGGUCG are 0.00025 ± 0.1 and -0.403 ± 0.14.
On to UAUUAGCAAUAUUACGAAGG, for which the “self-splicing fitness (ln)” value runs as follows: (30 °C) -2.18 ± 0.22; (37 °C) -0.523 ± 0.17.
For AUCGAGCAAUAUUACGGACG, in that order: -2.42 ± 0.17 and -2.96 ± 0.2.
For CAUUAGCAAUAUUACGGAGG, in that order: -0.36 ± 0.11 and -0.878 ± 0.16.
For GGUUAGCAAUAUUACGACAA, in that order: 0.354 ± 0.25 and 0.974 ± 0.3.
Consider GGCGAGCAAUAUUACGAUUG, for which the “self-splicing fitness (ln)” value is, setting by setting: (30 °C) -2.49 ± 0.13; (37 °C) -2.05 ± 0.2.
Take CACGAGCAAUAUUACGACCU: the “self-splicing fitness (ln)” value runs as follows: (30 °C) -2.18 ± 0.17; (37 °C) -2.27 ± 0.27.
Consider CUAGAGCAAUAUUACGCGGG, for which the “self-splicing fitness (ln)” value (30 °C) is -2.91 ± 0.22 and the “self-splicing fitness (ln)” value (37 °C) worked out at 0.316 ± 0.14.
For UGUGAGCAAUAUUACGUUAU, the “self-splicing fitness (ln)” value runs as follows: (30 °C) -4.11 ± 0.28; (37 °C) -3.51 ± 0.28.
In the case of AGUAAGCAAUAUUACGCGGC, the “self-splicing fitness (ln)” value (37 °C) was -3.37 ± 0.42.
Consider CUCGAGCAAUAUUACGGUGC, for which the “self-splicing fitness (ln)” value reads like this: (30 °C) -2.95 ± 0.25; (37 °C) -2.88 ± 0.31.
Take UGAUAGCAAUAUUACGUCUG: the “self-splicing fitness (ln)” value is -0.116 ± 0.085 (30 °C) and 0.318 ± 0.1 (37 °C).
On to ACCGAGCAAUAUUACGUGGU, for which the “self-splicing fitness (ln)” value by setting is: (30 °C) -3.77 ± 0.17; (37 °C) -2.05 ± 0.18.
Take UAAAAGCAAUAUUACGUACC: the “self-splicing fitness (ln)” value by setting is: (30 °C) -2.18 ± 0.25; (37 °C) -0.361 ± 0.21.
With GGGGAGCAAUAUUACGAGGG, the “self-splicing fitness (ln)” value (30 °C) was -2.13 ± 0.19.
In the case of UUCUAGCAAUAUUACGGAAC, the “self-splicing fitness (ln)” value is, setting by setting: (30 °C) -3.74 ± 0.43; (37 °C) -1.86 ± 0.3.
As to GCGGAGCAAUAUUACGUCUG, the “self-splicing fitness (ln)” value by setting is: (30 °C) -3.82 ± 0.42; (37 °C) -2.44 ± 0.41.
In the case of CAACAGCAAUAUUACGCAAA, the “self-splicing fitness (ln)” value (30 °C) was -3.57 ± 0.33 and the “self-splicing fitness (ln)” value (37 °C) was -2.37 ± 0.14.
For the sequence ACUAAGCAAUAUUACGACAG, the “self-splicing fitness (ln)” value runs as follows: (30 °C) -0.663 ± 0.085; (37 °C) -0.322 ± 0.11.
In the case of GCGGAGCAAUAUUACGGGCU, the “self-splicing fitness (ln)” value (30 °C) was -2.38 ± 0.36.
For UGUUAGCAAUAUUACGUAGC, for the setting “37 °C”, the “self-splicing fitness (ln)” value is -0.793 ± 0.22.
Turning to GACGAGCAAUAUUACGUUCG, the “self-splicing fitness (ln)” value is -4.1 ± 0.24 (30 °C) and -2.24 ± 0.23 (37 °C).
For the sequence CCAAAGCAAUAUUACGGACU, the “self-splicing fitness (ln)” value was -2.27 ± 0.13 (30 °C) and -2.84 ± 0.22 (37 °C).
For UGAGAGCAAUAUUACGAAGU, in that order: -3.04 ± 0.26 and -2.55 ± 0.31.
CUAGAGCAAUAUUACGUAUG: the “self-splicing fitness (ln)” value (30 °C) was -0.333 ± 0.084 and the “self-splicing fitness (ln)” value (37 °C) stood at 0.333 ± 0.11.
For the sequence UUCAAGCAAUAUUACGGUCA, the “self-splicing fitness (ln)” value by setting is: (30 °C) -0.929 ± 0.097; (37 °C) 0.00589 ± 0.098.
In the case of UGUCAGCAAUAUUACGUCCA, the “self-splicing fitness (ln)” value reads like this: (30 °C) -0.159 ± 0.094; (37 °C) -0.505 ± 0.12.
Consider GGAAAGCAAUAUUACGAUCG, for which the “self-splicing fitness (ln)” value (30 °C) was -0.227 ± 0.084 and the “self-splicing fitness (ln)” value (37 °C) is -0.145 ± 0.12.
For CAAGAGCAAUAUUACGAACG, the “self-splicing fitness (ln)” value by setting is: (30 °C) -0.336 ± 0.063; (37 °C) 0.335 ± 0.079.
As for GAUCAGCAAUAUUACGCAAC, the “self-splicing fitness (ln)” value is -1.5 ± 0.13 (30 °C) and -0.455 ± 0.17 (37 °C).
